Measured values: doi:10.1101/2020.02.02.931204

Biological target: HA-SFPQ (human) (UniProt P23246)
Experiment: co-IP

Sequence of Myc-KLC1 ΔTail (domain or fragment) (O88447 whole entry, stated change not applied, the tested form may be a part): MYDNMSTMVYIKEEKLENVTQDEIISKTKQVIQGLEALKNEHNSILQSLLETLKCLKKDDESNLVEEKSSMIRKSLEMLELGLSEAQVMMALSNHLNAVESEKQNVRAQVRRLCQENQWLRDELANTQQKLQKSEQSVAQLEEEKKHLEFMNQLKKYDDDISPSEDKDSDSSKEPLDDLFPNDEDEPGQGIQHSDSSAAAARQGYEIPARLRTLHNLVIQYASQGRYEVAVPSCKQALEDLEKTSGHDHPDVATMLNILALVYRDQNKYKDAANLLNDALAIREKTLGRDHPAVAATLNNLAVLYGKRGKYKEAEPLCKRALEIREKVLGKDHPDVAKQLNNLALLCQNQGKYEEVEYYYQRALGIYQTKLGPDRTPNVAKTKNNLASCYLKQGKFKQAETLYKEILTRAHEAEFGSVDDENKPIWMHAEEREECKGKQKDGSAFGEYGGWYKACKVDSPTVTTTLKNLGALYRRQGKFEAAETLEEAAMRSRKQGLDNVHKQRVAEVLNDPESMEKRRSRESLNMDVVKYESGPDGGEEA
Sequence of HA-SFPQ (human) (P23246 whole entry): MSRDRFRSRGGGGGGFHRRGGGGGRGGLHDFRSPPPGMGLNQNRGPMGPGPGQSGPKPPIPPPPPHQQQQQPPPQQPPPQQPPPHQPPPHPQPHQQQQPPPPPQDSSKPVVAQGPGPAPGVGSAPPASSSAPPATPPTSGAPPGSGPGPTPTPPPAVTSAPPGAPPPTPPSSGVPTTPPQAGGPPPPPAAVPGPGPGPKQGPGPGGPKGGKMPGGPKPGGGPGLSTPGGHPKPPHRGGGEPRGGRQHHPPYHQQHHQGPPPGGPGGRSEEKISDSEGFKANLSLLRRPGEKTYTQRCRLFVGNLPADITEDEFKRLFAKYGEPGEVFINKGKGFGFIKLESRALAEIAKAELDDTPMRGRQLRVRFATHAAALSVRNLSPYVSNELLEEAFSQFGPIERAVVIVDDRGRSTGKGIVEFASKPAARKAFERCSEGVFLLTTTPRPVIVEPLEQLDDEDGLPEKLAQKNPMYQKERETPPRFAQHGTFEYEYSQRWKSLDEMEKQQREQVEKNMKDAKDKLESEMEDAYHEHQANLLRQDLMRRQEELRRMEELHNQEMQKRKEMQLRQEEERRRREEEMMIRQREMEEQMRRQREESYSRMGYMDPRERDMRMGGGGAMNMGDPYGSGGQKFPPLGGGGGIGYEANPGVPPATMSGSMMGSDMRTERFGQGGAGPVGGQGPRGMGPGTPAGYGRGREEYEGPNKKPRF

Substance: Myc-KLC1 ΔTail (domain or fragment)
- reduction of binding against WT KLC1: 50%
